Experimental data from PMC3834829, “A signature motif mediating selective interactions of BCL11A with the NR2E/F subfamily of orphan nuclear receptors” (Nucleic Acids Research, 2013).

B1: LexA-BCL11A-(651–670) [not stated] / AAD-COUP-TFI-LBD-(151–467) [not stated] (parent complex)
chain 1: NTENVYSQWLAGYAASRQLK
chain 2: MRREAVQRGRMPPTQPNPGQYALTNGDPLNGHCYLSGYISLLLRAEPYPTSRYGSQCMQPNNIMGIENICELAARLLFSAVEWARNIPFFPDLQITDQVSLLRLTWSELFVLNAAQCSMPLHVAPLLAAAGLHASPMSADRVVAFMDHIRIFQEQVEKLKALHVDSAEYSCLKAIVLFTSDACGLSDAAHIESLQEKSQCALEEYVRSQYPNQPSRFGKLLLRLPSLRTVSSSVIEQLFFVRLVGKTPIETLIRDMLLSGSSFNWPYMSIQCS
B2: LexA-BCL11A-(651–670) [not stated] / AAD-EAR2-LBD-(121–399) [not stated] (parent complex)
chain 1: NTENVYSQWLAGYAASRQLK
chain 2: MRKEAVQRGRIPHSLPGAVAASSGSPPGSALAAVASGGDLFPGQPVSELIAQLLRAEPYPAAAGRFGAGGGAAGAVLGIDNVCELAARLLFSTVEWARHAPFFPELPVADQVALLRLSWSELFVLNAAQAALPLHTAPLLAAAGLHAAPMAAERAVAFMDQVRAFQEQVDKLGRLQVDSAEYGCLKAIALFTPDACGLSDPAHVESLQEKAQVALTEYVRAQYPSQPQRFGRLLLRLPALRAVPASLISQLFFMRLVGKTPIETLIRDMLLSGSTFNWP
B3: AAD-COUP-TFII-LBD-(144–414) [not stated] / LexA-BCL11A-(651–670) [not stated] (parent complex)
chain 1: MRREAVQRGRMPPTQPTHGQFALTNGDPLNCHSYLSGYISLLLRAEPYPTSRFGSQCMQPNNIMGIENICELAARMLFSAVEWARNIPFFPDLQITDQVALLRLTWSELFVLNAAQCSMPLHVAPLLAAAGLHASPMSADRVVAFMDHIRIFQEQVEKLKALHVDSAEYSCLKAIVLFTSDACGLSDVAHVESLQEKSQCALEEYVRSQYPNQPTRFGKLLLRLPSLRTVSSSVIEQLFFVRLVGKTPIETLIRDMLLSGSSFNWPYMAIQ
chain 2: NTENVYSQWLAGYAASRQLK
B4: LexA-BCL11A-(310–325) [not stated] / AAD-EAR2-LBD-(121–399) [not stated] (parent complex)
chain 1: PPAMDFSRRLRELAGN
chain 2: B2 chain 2

Variants of: B1
Assay: yeast two-hybrid; read off a plot
Variant chain 1 NTENVYSAWLAGYAASRQLK [chain 1 Q8A] has a response of ~920 nmol/mg/min.
Variant chain 1 NTENVYAQWLAGYAASRQLK [chain 1 S7A] has a response of ~0 nmol/mg/min.
chain 1 NTENVASQWLAGYAASRQLK [chain 1 Y6A] showed a response of ~50 nmol/mg/min.
chain 1 NTENVYSQWAAGYAASRQLK [chain 1 L10A] gave a response of ~0 nmol/mg/min.
chain 1 NTENVYSQWLAGAAASRQLK [chain 1 Y13A] was tested, and the response was ~0 nmol/mg/min.
chain 1 NTENAYSQWLAGYAASRQLK [chain 1 V5A] gave a response of ~220 nmol/mg/min.
chain 1 NTENVYSQALAGYAASRQLK [chain 1 W9A] gave a response of ~0 nmol/mg/min.
In the case of chain 1 NTENVYSQWLAAYAASRQLK [chain 1 G12A], the response is reported as ~2300 nmol/mg/min.

Variants of: B2
Assay: yeast two-hybrid; read off a plot
chain 1 NTENVASQWLAGYAASRQLK [chain 1 Y6A] was tested, and the response was ~840 nmol/mg/min.
With chain 1 NTENAYSQWLAGYAASRQLK [chain 1 V5A] the response was ~190 nmol/mg/min.
In the case of chain 1 NTENVYSAWLAGYAASRQLK [chain 1 Q8A], the response is reported as ~900 nmol/mg/min.
Variant chain 1 NTENVYAQWLAGYAASRQLK [chain 1 S7A] has a response of ~910 nmol/mg/min.
Work on chain 1 NTENVYSQWAAGYAASRQLK [chain 1 L10A] yielded a response of ~0 nmol/mg/min.
chain 1 NTENVYSQALAGYAASRQLK [chain 1 W9A] showed a response of ~130 nmol/mg/min.
Variant chain 1 NTENVYSQWLAAYAASRQLK [chain 1 G12A] has a response of ~1800 nmol/mg/min.
For chain 1 NTENVYSQWLAGAAASRQLK [chain 1 Y13A], the response was ~0 nmol/mg/min.

Variants of: B3
Assay: yeast two-hybrid; read off a plot
Work on chain 1 MRREAVQRGRMPPTQPTHGQFALTNGDPLNCHSYLSGYISLLLRAEPYPTSRFGSQCMQPNNIMGIENICELAARMLFSAVEWARNIPFFPDLQITDQAALLRLTWSELFVLNAAQCSMPLHVAPLLAAAGLHASPMSADRVVAFMDHIRIFQEQVEKLKALHVDSAEYSCLKAIVLFTSDACGLSDVAHVESLQEKSQCALEEYVRSQYPNQPTRFGKLLLRLPSLRTVSSSVIEQLFFVRLVGKTPIETLIRDMLLSGSSFNWPYMAIQ [chain 1 V99A] yielded a response of ~2700 nmol/mg/min.
chain 1 MRREAVQRGRMPPTQPTHGQFALTNGDPLNCHSYLSGYISLLLRAEPYPTSRFGSQCMQPNNIMGIENICELAARMLFSAVEWAANIPFFPDLQITDQVALLRLTWSELFVLNAAQCSMPLHVAPLLAAAGLHASPMSADRVVAFMDHIRIFQEQVEKLKALHVDSAEYSCLKAIVLFTSDACGLSDVAHVESLQEKSQCALEEYVRSQYPNQPTRFGKLLLRLPSLRTVSSSVIEQLFFVRLVGKTPIETLIRDMLLSGSSFNWPYMAIQ [chain 1 R85A] was tested, and the response was ~1200 nmol/mg/min.
chain 1 MRREAVQRGRMPPTQPTHGQFALTNGDPLNCHSYLSGYISLLLRAEPYPTSRFGSQCMQPNNIMGIENICELAARMLASAVEWARNIPFFPDLQITDQVALLRLTWSELFVLNAAQCSMPLHVAPLLAAAGLHASPMSADRVVAFMDHIRIFQEQVEKLKALHVDSAEYSCLKAIVLFTSDACGLSDVAHVESLQEKSQCALEEYVRSQYPNQPTRFGKLLLRLPSLRTVSSSVIEQLFFVRLVGKTPIETLIRDMLLSGSSFNWPYMAIQ [chain 1 F78A] gave a response of ~40 nmol/mg/min.
chain 1 MRREAVQRGRMPPTQPTHGQFALTNGDPLNCHSYLSGYISLLLRAEPYPTSRFGSQCMQPNNIMGIENICELAARMLFSAAEWARNIPFFPDLQITDQVALLRLTWSELFVLNAAQCSMPLHVAPLLAAAGLHASPMSADRVVAFMDHIRIFQEQVEKLKALHVDSAEYSCLKAIVLFTSDACGLSDVAHVESLQEKSQCALEEYVRSQYPNQPTRFGKLLLRLPSLRTVSSSVIEQLFFVRLVGKTPIETLIRDMLLSGSSFNWPYMAIQ [chain 1 V81A] gave a response of ~20 nmol/mg/min.
For chain 1 MRREAVQRGRMPPTQPTHGQFALTNGDPLNCHSYLSGYISLLLRAEPYPTSRFGSQCMQPNNIMGIENICELAARMLFSAVEWARNIPFFPDLQITDQVALLALTWSELFVLNAAQCSMPLHVAPLLAAAGLHASPMSADRVVAFMDHIRIFQEQVEKLKALHVDSAEYSCLKAIVLFTSDACGLSDVAHVESLQEKSQCALEEYVRSQYPNQPTRFGKLLLRLPSLRTVSSSVIEQLFFVRLVGKTPIETLIRDMLLSGSSFNWPYMAIQ [chain 1 R103A], the response was ~1900 nmol/mg/min.
In the case of chain 1 MRREAVQRGRMPPTQPTHGQFALTNGDPLNCHSYLSGYISLLLRAEPYPTSRFGSQCMQPNNIMGIENICELAARMLFSAVEWARNIPFFPDLQATDQVALLRLTWSELFVLNAAQCSMPLHVAPLLAAAGLHASPMSADRVVAFMDHIRIFQEQVEKLKALHVDSAEYSCLKAIVLFTSDACGLSDVAHVESLQEKSQCALEEYVRSQYPNQPTRFGKLLLRLPSLRTVSSSVIEQLFFVRLVGKTPIETLIRDMLLSGSSFNWPYMAIQ [chain 1 I95A], the response is reported as ~2900 nmol/mg/min.

Variants of: B4
Assay: yeast two-hybrid; read off a plot
chain 1 PPAMDFSARLRELAGN [chain 1 R8A] was tested, and the response was ~1000 nmol/mg/min.
chain 1 PPAMDFARRLRELAGN [chain 1 S7A] gave a response of ~160 nmol/mg/min.
Work on chain 1 PPAMDFSRRARELAGN [chain 1 L10A] yielded a response of ~0 nmol/mg/min.
Variant chain 1 PPAMDFSRRLAELAGN [chain 1 R11A] has a response of ~1300 nmol/mg/min.
In the case of chain 1 PPAMDFSRRLREAAGN [chain 1 L13A], the response is reported as ~0 nmol/mg/min.
